B1: Transcription elongation regulator 1-like protein, residues 448 to 504; numbered along this chain, Q5VWI1 (parent)
chain: LPLEERVTHFRDMLLERGVSAFSTWEKELHKIVFDPRYLLLNSEERKQIFEQFVKTR
B2: Ankyrin-2, residues 3571 to 3650; numbered along this chain, Q01484 (parent)
chain: ERLAYIADHLGFSWTELARELDFTEEQIHQIRIENPNSLQDQSHALLKYWLERDGKHATDTNLVECLTKINRMDIVHLME

Drawing on the Human Domainome abundance scans (Beltran et al. 2025), this text covers abundance fitness for 42 variants.

± gives the uncertainty stated by the source.

In the first data set the parent is B1. Put plainly: abundance fitness (aPCA) (normalised: wild type 0, dead -1); higher = more abundant; growth selection in yeast, the domain comes from the species named. The following applies: Homo sapiens.
VPLEERVTHFRDMLLERGVSAFSTWEKELHKIVFDPRYLLLNSEERKQIFEQFVKTR [L1V]: the abundance fitness is -0.4 ± 0.18.

As for IPLEERVTHFRDMLLERGVSAFSTWEKELHKIVFDPRYLLLNSEERKQIFEQFVKTR [L1I], the abundance fitness came to 2.04 ± 0.48.

In the case of FPLEERVTHFRDMLLERGVSAFSTWEKELHKIVFDPRYLLLNSEERKQIFEQFVKTR [L1F], the abundance fitness is 0.408 ± 0.27.

Regarding APLEERVTHFRDMLLERGVSAFSTWEKELHKIVFDPRYLLLNSEERKQIFEQFVKTR [L1A], the abundance fitness is -0.321 ± 0.33.

As to WPLEERVTHFRDMLLERGVSAFSTWEKELHKIVFDPRYLLLNSEERKQIFEQFVKTR [L1W], the abundance fitness is -0.717 ± 0.16.

Take SPLEERVTHFRDMLLERGVSAFSTWEKELHKIVFDPRYLLLNSEERKQIFEQFVKTR [L1S]: the abundance fitness was -0.082 ± 0.3.

In the case of LRLEERVTHFRDMLLERGVSAFSTWEKELHKIVFDPRYLLLNSEERKQIFEQFVKTR [P2R], the abundance fitness is 0.776 ± 0.092.

As to LVLEERVTHFRDMLLERGVSAFSTWEKELHKIVFDPRYLLLNSEERKQIFEQFVKTR [P2V], the abundance fitness was -0.031 ± 0.34.

Take LDLEERVTHFRDMLLERGVSAFSTWEKELHKIVFDPRYLLLNSEERKQIFEQFVKTR [P2D]: the abundance fitness was 1.26 ± 0.14.

As for LCLEERVTHFRDMLLERGVSAFSTWEKELHKIVFDPRYLLLNSEERKQIFEQFVKTR [P2C], the abundance fitness amounted to 0.766 ± 0.23.

With LELEERVTHFRDMLLERGVSAFSTWEKELHKIVFDPRYLLLNSEERKQIFEQFVKTR [P2E], the abundance fitness came out at 0.88 ± 0.073.

As to LTLEERVTHFRDMLLERGVSAFSTWEKELHKIVFDPRYLLLNSEERKQIFEQFVKTR [P2T], the abundance fitness is 1.24 ± 0.085.

In the case of LSLEERVTHFRDMLLERGVSAFSTWEKELHKIVFDPRYLLLNSEERKQIFEQFVKTR [P2S], the abundance fitness amounted to 1.09 ± 0.14.

LALEERVTHFRDMLLERGVSAFSTWEKELHKIVFDPRYLLLNSEERKQIFEQFVKTR [P2A]: the abundance fitness is 0.331 ± 0.18.

As for LLLEERVTHFRDMLLERGVSAFSTWEKELHKIVFDPRYLLLNSEERKQIFEQFVKTR [P2L], the abundance fitness was -0.147 ± 0.26.

LWLEERVTHFRDMLLERGVSAFSTWEKELHKIVFDPRYLLLNSEERKQIFEQFVKTR [P2W]: the abundance fitness stood at 0 ± 0.31.

With LKLEERVTHFRDMLLERGVSAFSTWEKELHKIVFDPRYLLLNSEERKQIFEQFVKTR [P2K], the abundance fitness worked out at 0.925 ± 0.075.

For the variant LQLEERVTHFRDMLLERGVSAFSTWEKELHKIVFDPRYLLLNSEERKQIFEQFVKTR [P2Q], the abundance fitness came out at 0.364 ± 0.16.

LNLEERVTHFRDMLLERGVSAFSTWEKELHKIVFDPRYLLLNSEERKQIFEQFVKTR [P2N]: the abundance fitness came to 1.18 ± 0.37.

As to LPIEERVTHFRDMLLERGVSAFSTWEKELHKIVFDPRYLLLNSEERKQIFEQFVKTR [L3I], the abundance fitness is 0.427 ± 0.31.

With LPFEERVTHFRDMLLERGVSAFSTWEKELHKIVFDPRYLLLNSEERKQIFEQFVKTR [L3F], the abundance fitness was 0.04 ± 0.41.

Consider LPGEERVTHFRDMLLERGVSAFSTWEKELHKIVFDPRYLLLNSEERKQIFEQFVKTR [L3G], for which the abundance fitness was -0.214 ± 0.14.

Turning to LPHEERVTHFRDMLLERGVSAFSTWEKELHKIVFDPRYLLLNSEERKQIFEQFVKTR [L3H], the abundance fitness was found to be 0.663 ± 0.21.

With LPEEERVTHFRDMLLERGVSAFSTWEKELHKIVFDPRYLLLNSEERKQIFEQFVKTR [L3E], the abundance fitness worked out at 0.132 ± 0.2.

Take LPCEERVTHFRDMLLERGVSAFSTWEKELHKIVFDPRYLLLNSEERKQIFEQFVKTR [L3C]: the abundance fitness is -0.857 ± 0.23.

Turning to LPDEERVTHFRDMLLERGVSAFSTWEKELHKIVFDPRYLLLNSEERKQIFEQFVKTR [L3D], the abundance fitness is -0.135 ± 0.23.

Consider LPKEERVTHFRDMLLERGVSAFSTWEKELHKIVFDPRYLLLNSEERKQIFEQFVKTR [L3K], for which the abundance fitness came to 0.487 ± 0.15.

For LPAEERVTHFRDMLLERGVSAFSTWEKELHKIVFDPRYLLLNSEERKQIFEQFVKTR [L3A], the abundance fitness was -0.337 ± 0.13.

Turning to LPMEERVTHFRDMLLERGVSAFSTWEKELHKIVFDPRYLLLNSEERKQIFEQFVKTR [L3M], the abundance fitness was determined as 0.309 ± 0.18.

The variants in a further data set derive from B2. Described as above. Conditions: Homo sapiens.
For ERLAYIADHLGFSWTELARELDFTEEQIHQIRIENPNSLQDQSHALLKYWLERDGKHATDTNLVECLTKINRMDIPHLME [V76P], the abundance fitness is -0.226 ± 0.095.

Consider ERLAYIADHLGFSWTELARELDFTEEQIHQIRIENPNSLQDQSHALLKYWLERDGKHATDTNLVECLTKINRMDINHLME [V76N], for which the abundance fitness is -0.249 ± 0.24.

Turning to ERLAYIADHLGFSWTELARELDFTEEQIHQIRIENPNSLQDQSHALLKYWLERDGKHATDTNLVECLTKINRMDIMHLME [V76M], the abundance fitness is -0.099 ± 0.12.

On to ERLAYIADHLGFSWTELARELDFTEEQIHQIRIENPNSLQDQSHALLKYWLERDGKHATDTNLVECLTKINRMDISHLME [V76S], for which the abundance fitness was -0.219 ± 0.1.

Consider ERLAYIADHLGFSWTELARELDFTEEQIHQIRIENPNSLQDQSHALLKYWLERDGKHATDTNLVECLTKINRMDIIHLME [V76I], for which the abundance fitness was 0.04 ± 0.088.

On to ERLAYIADHLGFSWTELARELDFTEEQIHQIRIENPNSLQDQSHALLKYWLERDGKHATDTNLVECLTKINRMDIYHLME [V76Y], for which the abundance fitness is -0.196 ± 0.12.

As to ERLAYIADHLGFSWTELARELDFTEEQIHQIRIENPNSLQDQSHALLKYWLERDGKHATDTNLVECLTKINRMDITHLME [V76T], the abundance fitness is -0.223 ± 0.14.

For the variant ERLAYIADHLGFSWTELARELDFTEEQIHQIRIENPNSLQDQSHALLKYWLERDGKHATDTNLVECLTKINRMDIKHLME [V76K], the abundance fitness is -0.467 ± 0.2.

ERLAYIADHLGFSWTELARELDFTEEQIHQIRIENPNSLQDQSHALLKYWLERDGKHATDTNLVECLTKINRMDIRHLME [V76R]: the abundance fitness was -0.223 ± 0.093.

As to ERLAYIADHLGFSWTELARELDFTEEQIHQIRIENPNSLQDQSHALLKYWLERDGKHATDTNLVECLTKINRMDIQHLME [V76Q], the abundance fitness is -0.107 ± 0.16.

Turning to ERLAYIADHLGFSWTELARELDFTEEQIHQIRIENPNSLQDQSHALLKYWLERDGKHATDTNLVECLTKINRMDIWHLME [V76W], the abundance fitness was -0.05 ± 0.11.

In the case of ERLAYIADHLGFSWTELARELDFTEEQIHQIRIENPNSLQDQSHALLKYWLERDGKHATDTNLVECLTKINRMDILHLME [V76L], the abundance fitness was -0.081 ± 0.091.

Take ERLAYIADHLGFSWTELARELDFTEEQIHQIRIENPNSLQDQSHALLKYWLERDGKHATDTNLVECLTKINRMDIVHLKE [M79K]: the abundance fitness is -0.23 ± 0.27.
